The record followed here is PMC3915751.

The series relates to T1, BaeR (Erwinia amylovora Ea1189 (primers from CFBP1430 genome)), ORF:3df56c72.
T1 sequence: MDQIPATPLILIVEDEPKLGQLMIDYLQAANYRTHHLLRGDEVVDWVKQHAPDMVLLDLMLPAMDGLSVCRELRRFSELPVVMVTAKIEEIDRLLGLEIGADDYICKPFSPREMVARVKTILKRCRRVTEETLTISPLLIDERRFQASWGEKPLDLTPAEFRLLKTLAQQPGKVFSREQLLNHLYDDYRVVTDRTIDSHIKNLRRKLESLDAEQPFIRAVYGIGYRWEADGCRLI
Nature of the series: EMSA. The conditions noted are these: 50 mM Tris-HCl pH 7.5, 1 mM DTT, 500 mM MgCl2, 100 mM EDTA, 10 mM NaCl ([…], room temperature 30 min.

For the sequence “TGGCTGGCAACACTGAAGCCGCCCAGGCTCAGGCCGATGAGTAAAGGGAGCAGTTTGTTCATTTGCATTCCTTGTAGTGCAGCAAAATTGTTATGGTAGCGTTGACGCAGACCAAAAATTGTCGCCGATGATAGCAGAGACTCCGGATCAGGTAAGTTGGCTGAAAGTGCCATCCTCCTTTTAATTTACTTAAATACTTCATCAAGAACCAGACATCCGGCTGATTACTATTGAACTAAACGTTTTCGCCATTATTTCAGGAGATACAGTGATGACCGCAGTGACCAATTA (double strand) [tolC upstream region (291 bp)]”, the binding entry is listed as “no binding”.
The result for “TGTTTGGTATTTCGTGCCATAGCGGTATGATTTACAACGCTTCAGACTTACATACATTTGCGAATGTATGTACTATAGCACGACTAAAATTTAAACGCAGCAGTGGGTTTGTAATCCATTGAACAATCGATATCGGACATTCGAGGTTTATTTATGAACAAAAACAGAGGGTTAACGCCTCTGGCGGCCGTTCTGATGCTTTCAG (double strand) [acrAB upstream region (205 bp)]” reads “binds more weakly”.
